Experimental data reported in patent publication US10100120B2, “Antibody which specifically binds to human CRTH2” (KYOWA HAKKO KIRIN CO., LTD, priority 2015, dated 2018).

B1: LV0HV0: humanized Lym2 antibody, VL LV0 (SEQ ID NO: 33), VH HV0 (SEQ ID NO: 49) (antibody, V domains shown)
VH: EVQLVESGGGVVQPGRSLRLSCAASGFTFSNYYMAWVRQAPGKGLEWVATISYDGSSTYYRDSVKGRFTISRDNAKNSLYLQMNSLRAEDTAVYYCARHRGYYYSGAGYFDYWGQGTMVTVSS
VL: DIVMTQTPLSLPVTPGESASISCRSSQSLEYSDGYTYLEWYLQKPGQSPQVLIYGVSNRFSGVPDRFSGSGSGTDFTLKISRVEAEDVGVYYCFQATHDPLTFGQGTKLEIK
B2: LV0HV2a: humanized Lym2 antibody, VL LV0 (SEQ ID NO: 33), VH HV2a (SEQ ID NO: 53) (antibody, V domains shown)
VH: EVQLVESGGGVVQPGRSLRLSCAASGFTFSNYYMAWVRQAPGKGLEWVATISYDGSSTYYRDSVKGRFTISRDNAKNSLYLQMNSLRAEDTATYYCARHRGYYYSGAGYFDYWGQGVMVTVSS
VL: DIVMTQTPLSLPVTPGESASISCRSSQSLEYSDGYTYLEWYLQKPGQSPQVLIYGVSNRFSGVPDRFSGSGSGTDFTLKISRVEAEDVGVYYCFQATHDPLTFGQGTKLEIK

Experiments:
Type in all cases: cell-based
human eosinophils [1] = test: Antagonist activity using shape change of human eosinophils as index (Example 19); conditions: DKPGD2 0.1-1000 nM, FIG. 16
Protocol: Eosinophils were separated from human peripheral blood in the same manner as in Example 11. The isolated human eosinophils were suspended with Dulbecco's phosphate buffered saline (hereinafter, referred to as D-PBS (−)) (NACALAI TESQUE, Inc.) and performed a reaction in a 5% CO2 incubator at 37° C. for 1 hour and 30 minutes. Thereafter, the cells were seeded in a 96-well plate at 2×10^5 cells/well using 10% FBS-containing RPMI1640. Next, an isotype control antibody [CELL LAB Rat IgG2b Isotype Control (Beckman Coulter Inc.)] at a final concentration of 10 μg/mL or Lym2 antibody; or small molecular CRTH2 antagonist 00000459 (Cayman Chemical) at a final concentration of 10 μM as a positive control, was added thereto to cause a reaction in a 5% CO2 incubator at 37° C. for 30 minutes.
Next, DKPGD2 (Cayman Chemical) at each of final concentrations of 0.1, 1, 10, 100, and 1000 nM was added thereto to cause a reaction in a 5% CO2 incubator at 37° C. for 60 minutes. After the reaction, the cells were washed twice with ice-cold PBS, Fixation Buffer (BD Biosciences) was added at 200 μL/well, and the resultant was suspended well and allowed to stand at 4° C. for 30 minutes. After that, the cells were washed twice with SM, and shape change of eosinophils was analyzed by flow cytometry (BD Biosciences, FACS CantoII).
The shape change of eosinophils was analyzed based on an increase in Forward Scatter Light (FSC) plot which is an index of the cell size, the cell surface area, or the cell diameter in the analysis using flow cytometry and the percentage (%) of eosinophils detected in the gate of high FSC was calculated based on the FSC of DKPGD2-untreated eosinophils.

human eosinophils [2] = test: Eosinophil depletion (cytotoxic) activity in human peripheral blood cells, flow cytometry; conditions: Example 8; 0.01-1000 ng/mL, 37° C., 20 hours; FIG. 3
Protocol: (§1) Human peripheral blood collected by adding a heparin sodium injection liquid was centrifuged at 4° C. and 1500 rpm for 30 minutes, and the plasma was recovered.
(§2) After the plasma was recovered, PBS (NACALAI TESQUE, Inc.) was added to the pellet containing the red blood up to the original volume of blood and the pellet was suspended. Next, to 1 mL of the suspension, 10 mL of hemolyzing solution [solution obtained by diluting 10×RBC Lysis buffer (eBioscience) 10 times with sterile water] was added to be mixed by inversion. The resultant was allowed to stand at room temperature for 10 minutes and centrifuged at room temperature and 1500 rpm for 5 minutes and washed twice with PBS after the supernatant was removed therefrom.
(§3) Thereafter, the cell pellet was suspended with the recovered plasma and the cells were seeded in a 48-well plate at 300 μL/well, each of chLym2, humanized Lym2 antibodies LV0HV0, LV0HV1, and LV0HV2a, or an isotype control antibody [IgG1 antibody prepared according to the method described in Example 5 using a vector encoding an anti-2,4-dinitrophenol (DNP) IgG1 antibody described in Clin Cancer Res 2005, 11(8), 3126 to 3135 (hereinafter, referred to as anti-DNP IgG1 antibody)] were added at each final concentrations of 1000, 100, 33, 11, 3.7, 1.2, 0.4, and 0.01 ng/mL to cause a reaction in a 5% CO2 incubator at 37° C. for 20 hours.
(§4) After the reaction, the cell fluid in each well was recovered, 10 mL of SM was added thereto, 200 μL per sample of CountBright Absolute Counting Beads, for flow cytometry (Molecular Probes) was added as control beads, and the fluid was centrifuged at 4° C. and 2000 rpm for 10 minutes, and then the supernatant was removed. The resultant was washed twice with SM, 10000 μg/mL of IgG from human serum (Sigma-Aldrich Co. LLC) diluted with SM was added at 300 μL/sample and suspended to cause a reaction at 4° C. for 30 minutes. […]
(§5) The cells were washed twice with SM, suspended by SM containing 1% of 7-AAD Staining Solution (BD Biosciences), allowed to stand at 4° C. for 10 minutes, and the fluorescent intensity was analyzed by flow cytometry (BD Biosciences, FACS CantoII).
(§6) Human eosinophils were detected as 7-AAD negative siglec8-PE positive fractions in granulocyte fractions of FSC-SSC deployment. Human basophils were detected as 7-AAD negative fractions, CD123-PC-Cy7 positive fractions, FcεRI-APC positive fractions in lymphocyte fractions of FSC-SSC deployment. The cell depletion activity was evaluated by analyzing the count number of each cell per a certain number of CountBright. […]

human basophils = test: Basophil depletion (cytotoxic) activity in human peripheral blood cells, flow cytometry; conditions: Example 8; 0.01-1000 ng/mL, 37° C., 20 hours; FIG. 3
Protocol: as §1, §2, §3, §4, §5, §6

| Molecule | inhibition of DKPGD2-dependent shape change of eosinophils (antagonist activity) (human eosinophils [1]; antibody 10 μg/mL or small molecule 10 μM) | shape change of eosinophils induced by ligand (human eosinophils [1]; 37° C., 60 minutes) | cytotoxic activity against eosinophils (human eosinophils [2]) | cytotoxic activity against basophils (human basophils) |
| --- | --- | --- | --- | --- |
| Cc1c(Cc2ccc3ccccc3n2)c2cc(F)ccc2n1CC(=O)O [OC000459] | inhibited |  |  |  |
| CCCCCC(=O)CC[C@H]1C(=O)C[C@H](O)[C@@H]1C/C=C\CCCC(=O)O [DKPGD2, 13, 14-dihydro-15-keto prostaglandin D2] |  | induced shape change of eosinophils in a concentration-dependent manner |  |  |
| B1 |  |  | comparable to the chimeric Lym2 antibody chLym2 | comparable to the chimeric Lym2 antibody chLym2 |
| B2 |  |  | comparable to the chimeric Lym2 antibody chLym2 | comparable to the chimeric Lym2 antibody chLym2 |
